This note sets out measurements from patent US20230357429A1 (JANUX THERAPEUTICS, published 2023).

Numbering of substitutions follows the chain as printed. Numbers in names are those of the source. Read-outs that look alike come from different tables or passages of the source. Where no end group is shown, it is not given here.

One experiment deals with T1, TBD-1 wt.
T1 construct: Fab; the heavy chain entry is VH-CH1; also called wild-type anti-TROP2 Fab (hRS7); TROP2 Fab
In words: competition ELISA: peptide titrated and pre-incubated with a constant concentration of TBD-1, then added to plate-bound biotinylated TROP2; blocked ligand TROP2 (2.m7).

For experiment [1], the target named is T2, Human TROP2 ECD (31-274 AA), biotinylated (human, UniProt P09758 31-274, biotinylated (site not stated)).
T2 construct: also called tumor-associated calcium signal transducer 2; Human TROP2-biotin
T2 sequence: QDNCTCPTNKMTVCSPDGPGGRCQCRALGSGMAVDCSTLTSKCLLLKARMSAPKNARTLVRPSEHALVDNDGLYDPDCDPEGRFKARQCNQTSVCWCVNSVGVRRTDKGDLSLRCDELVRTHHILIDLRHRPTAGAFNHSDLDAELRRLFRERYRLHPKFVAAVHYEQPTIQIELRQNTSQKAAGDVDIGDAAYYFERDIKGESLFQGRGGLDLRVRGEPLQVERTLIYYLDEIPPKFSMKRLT
In words: ELISA on immobilized TROP2.

Experiment [2] addresses T2, Human TROP2 ECD (31-274 AA), …. The experiment can be described thus: ELISA on immobilized TROP2. This is another data set of the same source.
For experiment [3] the target is unchanged. In words: ELISA on immobilized TROP2. This is another data set of the same source. On the technique in general: An ELISA detects its analyte on a solid surface through an enzyme-linked reagent.
Experiment [4] has as its target T3, Human TROP2 Full length (human, UniProt P09758 31-323).
T3 sequence: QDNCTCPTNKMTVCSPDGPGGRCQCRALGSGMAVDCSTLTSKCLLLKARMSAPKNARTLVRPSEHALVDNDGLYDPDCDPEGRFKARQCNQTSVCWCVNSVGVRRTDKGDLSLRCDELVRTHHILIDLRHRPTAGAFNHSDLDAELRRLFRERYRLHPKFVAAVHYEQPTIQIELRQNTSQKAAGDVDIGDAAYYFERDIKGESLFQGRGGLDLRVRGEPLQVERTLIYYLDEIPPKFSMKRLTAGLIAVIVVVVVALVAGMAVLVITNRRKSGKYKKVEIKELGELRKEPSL
In words: cell-based or functional assay.

Experiment [5] deals with T4, Cyno TROP2 Full length (cynomolgus monkey, UniProt P09758 31-323 (human entry)).
T4 chain: T3 sequence with M32V, S63N, I200V, M262V, T268S
The experiment can be described thus: cell-based or functional assay.

A further experiment addresses T5, Peptide-69 (cysteine pairing not given here; also: biotinylated, site not given here).
T5 construct: mask peptide for the CD3 scFv
T5 peptide: SECLVDLQSDPCYW
In words: ELISA, TCE on captured biotin-peptide.

A further experiment addresses T6, Peptide-70 (cysteine pairing not given here; also: biotinylated, site not given here).
T6 construct: mask peptide for the CD3 scFv
T6 peptide: YLCGPDGDETLACY
The experiment can be described thus: ELISA, TCE on captured biotin-peptide.

In the next experiment the target is T7, Peptide-71 (cysteine pairing not given here; also: biotinylated, site not given here).
T7 construct: mask peptide for the CD3 scFv
T7 peptide: VDCGPDGDESILCY
The experiment can be described thus: ELISA, TCE on captured biotin-peptide.

The next experiment deals with T8, Peptide-68 (cysteine pairing not given here; also: biotinylated, site not given here).
T8 construct: mask peptide for the CD3 scFv
T8 peptide: DWCWYSPDNDGLCD
The experiment can be described thus: ELISA, TCE on captured biotin-peptide.

For experiment [6], the target named is T2, Human TROP2 ECD (31-274 AA), …. In words: ELISA on immobilized TROP2. This is another data set of the same source.
The target is the same in experiment [7]. The experiment can be described thus: ELISA on immobilized TROP2. The source holds these as a separate data set.
The target of experiment [8] is T9, CD3 (biotinylated CD3 antigen) (human, UniProt P07766 23-126, limits assumed, biotinylated (site not stated)).
T9 construct: also called CD3ε; human CD3
In words: ELISA: biotinylated CD3 captured on neutravidin plates, TCE titrated, HRP secondary antibody.

Experiment [9] has as its target T2, Human TROP2 ECD (31-274 AA), …. In words: ELISA on immobilized TROP2. This is another data set of the same source.
For experiment [10] the target is unchanged. The experiment can be described thus: ELISA on immobilized TROP2. This is another data set of the same source.
The target in experiment [11] is T3, Human TROP2 Full length. In words: cell-based or functional assay. This is another data set of the same source.
The target of experiment [12] is T4, Cyno TROP2 Full length. The experiment can be described thus: cell-based or functional assay.

As for VDFCALYNWPVCET [Peptide-11], the binding result in the experiment with TBD-1 wt was “binds”.

B1: PC-17 (bispecific antibody)
light: not shown
heavy: GGIDFCAIYQWPVCRSGGGGSGGLSGRSDAGSPLGLAGSGGSQVQLQQSGSELKKPGASVKVSCKASGYTFTNYGMNWVKQAPGQGLKWMGWINTYTGEPTYTDDFKGRFAFSLDTSVSTAYLQISSLKADDTAVYFCARGGFGSSYWYFAVWGQGSLVTVSSASTKGPSVFPLAPSSKSTSGGTAALGCLVKDYFPEPVTVSWNSGALTSGVHTFPAVLQSSGLYSLSSVVTVPSSSLGTQTYICNVNHKPSNTKVDKKVEPKSC
notes: anti-TROP2 D109A
Broadly, the EC50 is the concentration at which the effect is half-maximal. Low values mean higher potency in that assay, high ones lower potency in that assay. As for B1, the response in experiment [1] was half-maximal at 926 nM (EC50).

B2: PC-27 (bispecific antibody)
light: not shown
heavy: B1 heavy with I3V, Q10S, V13I, R15K, S16I
notes: anti-TROP2 D109A
The molecule B2 returned an EC50 in experiment [2] of 214 nM.

B3: PC-21 (bispecific antibody)
light: not shown
heavy: B1 heavy with I3V, I8L, Q10H, V13I, R15Y, S16Q
notes: anti-TROP2 D109A
Turning to B3, in experiment [2], the EC50 amounted to 168 nM.

B4: TCE-5 (bispecific antibody)
light: not shown
heavy: QVQLQQSGSELKKPGASVKVSCKASGYTFTNYGMNWVKQAPGQGLKWMGWINTYTGEPTYTDDFKGRFAFSLDTSVSTAYLQISSLKADDTAVYFCARGGFGSSYWYFAVWGQGSLVTVSSASTKGPSVFPLAPSSKSTSGGTAALGCLVKDYFPEPVTVSWNSGALTSGVHTFPAVLQSSGLYSLSSVVTVPSSSLGTQTYICNVNHKPSNTKVDKKVEPKSC
Take B4: the EC50 in experiment [1] worked out at 20.9 nM; in [2], 0.59 nM; in experiment [3] it was 1.43 nM.

B5: TCE-7 (bispecific antibody)
light: DIQLTQSPSSLSASVGDRVSITCKASQDVSIAVAWYQQKPGKAPKLLIYSASYRYTGVPDRFSGSGSGTDFTLTISSLQPEDFAVYYCQQHYITPLTFGAGTKVEIKRTVAAPSVFIFPPSDEQLKSGTASVVCLLNNFYPREAKVQWKVDNALQSGNSQESVTEQDSKDSTYSLSSTLTLSKADYEKHKVYACEVTHQGLSSPVTKSFNRGEC
heavy: not shown
Take B5: in the experiment with Human TROP2 Full length [4], the “HCT116 Cytotoxicity EC50 (pM)” value was 113 pM. Also, in the experiment with Cyno TROP2 Full length [5], the “CyTROP2 HEK293 EC50 (pM)” value amounted to 0.11 pM.

B6: TCE-38 (bispecific antibody)
light: B5 light
heavy: not shown
For B6, the “HCT116 Cytotoxicity EC50 (pM)” value with Human TROP2 Full length [4] was over 3000 pM. The “CyTROP2 HEK293 EC50 (pM)” value with Cyno TROP2 Full length [5] worked out at 3.6 pM.

B7: TCE-34 (anti-CD3 scFv P41S, A49G, N87S, L150F, T151S, G163R, P175A, K181T, T200V, A202D, L208I, G211N, L217I, S218T, V220A, P222A, E223D, A226S, E227D; … (bispecific antibody)
light: B5 light
heavy: EVQLVESGGGLVQPGGSLKLSCAASGFTFNKYAMNWVRQASGKGLEWVGRIRSKYNNYATYYADSVKDRFTISRDDSKNTAYLQMNSLKTEDTAVYYCVRHGNFGNSYISYWAYWGQGTLVTVSSGGGGSGGGGSGGGGSQTVVTQEPSFSVSPGGTVTLTCRSSTGAVTSGNYANWVQQTPGQAPRGLIGGTKFLAPGVPDRFSGSILGNKAALTITGAQADDESDYYCVLWYSNRWVFGGGTKLTVLGGGGSQVQLQQSGSELKKPGASVKVSCKASGYTFTNYGMNWVKQAPGQGLKWMGWINTYTGEPTYTDDFKGRFAFSLDTSVSTAYLQISSLKADDTAVYFCARGGFGSSYWYFDVWGQGSLVTVSSASTKGPSVFPLAPSSKSTSGGTAALGCLVKDYFPEPVTVSWNSGALTSGVHTFPAVLQSSGLYSLSSVVTVPSSSLGTQTYICNVNHKPSNTKVDKKVEPKSC
notes: scFv on the Fab heavy chain
Turning to B7, the EC50 with Peptide-69 came out at 0.31 nM; in the experiment with Peptide-70, 0.29 nM; in the experiment with Peptide-71, 0.32 nM; with Peptide-68, 0.41 nM.

B8: TCE-1 (TROP2 T cell engager, anti-CD3 scFv wt, anti-TROP2 wt) (bispecific antibody)
light: B5 light
heavy: not shown
notes: Anti-CD3 scFv joined to the N-terminus of the anti-TROP2 Fab heavy chain; the heavy entry holds scFv, linker and Fab heavy chain; also called TCE-1 (wt)
With B8, the EC50 in [1] was found to be 1.29 nM; in experiment [6] it was 0.06 nM; in experiment [7] it was 0.07 nM.

B9: TCE-48 (bispecific antibody)
light: B5 light
heavy: not shown
Regarding B9, the “H292 Cytotoxicity EC50 (pM)” value with Human TROP2 Full length [4] was found to be 7.2 pM. For the same molecule, the “CyTROP2 HEK293 EC50 (pM)” value in the experiment with Cyno TROP2 Full length [5] was 0.8 pM.

B10: TCE-35 (anti-CD3 scFv N30Q, I109V, G172A, V231A; anti-TROP2 wt) (bispecific antibody)
light: B5 light
heavy: not shown
notes: scFv on the Fab heavy chain
Take B10: a half-maximal effect in experiment [8] (EC50) was put at 0.171 nM.

B11: TCE-8 (anti-CD3 scFv wt; anti-TROP2 D109A) (bispecific antibody)
light: B5 light
heavy: not shown
notes: scFv on the Fab heavy chain
As for B11, the EC50 in experiment [9] was 0.16 nM; in [3], 0.57 nM; in experiment [10], 0.2 nM.

For VDFCYLYNWPVCSK [Peptide-9], the binding result with TBD-1 wt was “binds”.

B12: PC-8 (bispecific antibody)
light: GGVDFCGLYHWPICYQGGGGSGGLSGRSDAGSPLGLAGSGGSDIQLTQSPSSLSASVGDRVSITCKASQDVSIAVAWYQQKPGKAPKLLIYSASYRYTGVPDRFSGSGSGTDFTLTISSLQPEDFAVYYCQQHYITPLTFGAGTKVEIKRTVAAPSVFIFPPSDEQLKSGTASVVCLLNNFYPREAKVQWKVDNALQSGNSQESVTEQDSKDSTYSLSSTLTLSKADYEKHKVYACEVTHQGLSSPVTKSFNRGEC
heavy: not shown
notes: Masked polypeptide complex: anti-TROP2 D109A, anti-CD3 wt
Take B12: the EC50 in experiment [9] is 165 nM; in experiment [3], 187 nM; in experiment [10], 86 nM. Further, the “H292 Cytotoxicity EC50 (pM)” value with Human TROP2 Full length [11] stood at 14600 pM. Also, the “HCT116 Cytotoxicity EC50 (pM)” value with Human TROP2 Full length [11] was over 100000 pM. For the same molecule, the “CyTROP2 HEK293 EC50 (pM)” value in the experiment with Cyno TROP2 Full length [12] was determined as 3450 pM.

B13: PC-30 (bispecific antibody)
light: B12 light
heavy: not shown
notes: anti-TROP2 D109A
B13 showed an EC50 in [9] of 151 nM.
